This is an account of results in patent US20180134765A1 (AVIDBIOTICS, published 2018).

Sequences and labels used below:
T1: His-avitag-natural NKG2D (human, biotin on the avitag sequence (BirA))
T1 construct: also called natural NKG2D ectodomain; wild type NKG2D
T1 chain: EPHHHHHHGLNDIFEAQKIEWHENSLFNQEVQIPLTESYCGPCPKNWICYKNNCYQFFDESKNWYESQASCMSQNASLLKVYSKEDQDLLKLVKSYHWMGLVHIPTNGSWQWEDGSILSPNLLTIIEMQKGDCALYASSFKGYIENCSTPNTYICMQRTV

B1: wt MICA-Fv (designed binder)
chain: EPHSLRYNLTVLSWDGSVQSGFLTEVHLDGQPFLRCDRQKCRAKPQGQWAEDVLGNKTWDRETRDLTGNGKDLRMTLAHIKDQKEGLHSLQEIRVCEIHEDNSTRSSQHFYYDGELFLSQNLETKEWTMPQSSRAQTLAMNVRNFLKEDAMKTKTHYHAMHADCLQELRRYLKSGVVLRRTVPPMVQVTRSEASGGSGDRVTITCRASQDVSTAVAWYQQKPGKAPKLLIYSASFLYSGVPSRFSGSGSGTDFTLTISSLQPEDFATYYCQQSYTTPPTFGQGTKVEIKGGSSRSSSSGGGGSGGGGEVQLVESGGGLVQPGGSLRLSCAASGFTFTSTGISWVRQAPGKGLEWVGRIYPTNGSTNYADSVKGRFTISADTSKNTAYLQMNSLRAEDTAVYYCARTYGIYDLYVDYTEYVMDYWGQGTLVTVSSGGSSRSSSSGGGGSGGGGDIQMTQSPSSLSASGGSGQITVTCRASGFYPWNITLSWRQDGVSLSHDTQQWGDVLPDGQGTYQTWVATRISQGEEQRFTCYMEHSGQHSTHPVPSGKGSHHHHHH
notes: His-tagged α1-α2-α3-Fv fusion, made in 293 cells; also called natural α1-α2 domain α3-Fv fusion
B2: MICv27-Fv (designed binder)
chain: EPHSLRYNLTVLSWDGSVQSGFLTEVHLDGQPFLRCDRQKCRAKPQGQWAEDVLGNKTWDRETRDLTGWGKDLRMTLAHIKDQKEGLHSLQEIRVCEIHEDNSTRSSQHFYYDGELFLSQNLETLEWTMPQSSRAQTLAMNVRNFLKEDAMKTKTHYHAMRADCLSELRRYLKSGVVLRRTVPPMVQVTRSEASGGSGDRVTITCRASQDVSTAVAWYQQKPGKAPKLLIYSASFLYSGVPSRFSGSGSGTDFTLTISSLQPEDFATYYCQQSYTTPPTFGQGTKVEIKGGSSRSSSSGGGGSGGGGEVQLVESGGGLVQPGGSLRLSCAASGFTFTSTGISWVRQAPGKGLEWVGRIYPTNGSTNYADSVKGRFTISADTSKNTAYLQMNSLRAEDTAVYYCARTYGIYDLYVDYTEYVMDYWGQGTLVTVSSGGSSRSSSSGGGGSGGGGDIQMTQSPSSLSASGGSGQITVTCRASGFYPWNITLSWRQDGVSLSHDTQQWGDVLPDGQGTYQTWVATRISQGEEQRFTCYMEHSGQHSTHPVPSGKGSHHHHHH
notes: His-tagged α1-α2-α3-Fv fusion; also called DSM27 α1-α2-α3-Fv fusion
B3: MICv20-Fv (designed binder)
chain: EPHSLRYNLTVLSWDGSVQSGFLTEVHLDGQPFLRCDRQKCRAKPQGQWAEDVLGNKTWDRETRDLTAWGKDLRMTLAHIKDQKEGLHSLQEIRVCEIHEDNSTRSSQHFYYDGELFLSQNLETLEWTMPQSSRAQTLAMNVRNFLKEDAMQTDTHYRAMHADCLFELRRYLKSGVVLRRTVPPMVQVTRSEASGGSGDRVTITCRASQDVSTAVAWYQQKPGKAPKLLIYSASFLYSGVPSRFSGSGSGTDFTLTISSLQPEDFATYYCQQSYTTPPTFGQGTKVEIKGGSSRSSSSGGGGSGGGGEVQLVESGGGLVQPGGSLRLSCAASGFTFTSTGISWVRQAPGKGLEWVGRIYPTNGSTNYADSVKGRFTISADTSKNTAYLQMNSLRAEDTAVYYCARTYGIYDLYVDYTEYVMDYWGQGTLVTVSSGGSSRSSSSGGGGSGGGGDIQMTQSPSSLSASGGSGQITVTCRASGFYPWNITLSWRQDGVSLSHDTQQWGDVLPDGQGTYQTWVATRISQGEEQRFTCYMEHSGQHSTHPVPSGKGSHHHHHH
notes: His-tagged α1-α2-α3-Fv fusion; also called DSM20 α1-α2-α3-Fv fusion
B4: MICv28-Fv (designed binder)
chain: EPHSLRYNLTVLSWDGSVQSGFLTEVHLDGQPFLRCDRQKCRAKPQGQWAEDVLGNKTWDRETRDLTGNGKDLRMTLAHIKDQKEGLHSLQEIRVCEIHEDNSTRSSQHFYYDGELFLSQNLETLEWTMPQSSRAQTLAMNVRNFLKEDAMKTKTHYHAMRADCLSELRRYLKSGVVLRRTVPPMVQVTRSEASGGSGDRVTITCRASQDVSTAVAWYQQKPGKAPKLLIYSASFLYSGVPSRFSGSGSGTDFTLTISSLQPEDFATYYCQQSYTTPPTFGQGTKVEIKGGSSRSSSSGGGGSGGGGEVQLVESGGGLVQPGGSLRLSCAASGFTFTSTGISWVRQAPGKGLEWVGRIYPTNGSTNYADSVKGRFTISADTSKNTAYLQMNSLRAEDTAVYYCARTYGIYDLYVDYTEYVMDYWGQGTLVTVSSGGSSRSSSSGGGGSGGGGDIQMTQSPSSLSASGGSGQITVTCRASGFYPWNITLSWRQDGVSLSHDTQQWGDVLPDGQGTYQTWVATRISQGEEQRFTCYMEHSGQHSTHPVPSGKGSHHHHHH
notes: His-tagged α1-α2-α3-Fv fusion; also called DSM28 α1-α2-α3-Fv fusion
B5: MICv42-Fv (designed binder)
chain: EPHSLRYNLTVLSWDGSVQSGFLTEVHLDGQPFLRCDRQKCRAKPQGQWAEDVLGNKTWDRETRDLTGWGKDLRMTLAHIKDQKEGLHSLQEIRVCEIHEDNSTRSSQHFYYDGELFLSQNLETLEWTMPQSSRAQTLAMNVRNFLKEDAMETDTHYHAMRADCLQELRRYLKSGVVLRRTVPPMVQVTRSEASGGSGDRVTITCRASQDVSTAVAWYQQKPGKAPKLLIYSASFLYSGVPSRFSGSGSGTDFTLTISSLQPEDFATYYCQQSYTTPPTFGQGTKVEIKGGSSRSSSSGGGGSGGGGEVQLVESGGGLVQPGGSLRLSCAASGFTFTSTGISWVRQAPGKGLEWVGRIYPTNGSTNYADSVKGRFTISADTSKNTAYLQMNSLRAEDTAVYYCARTYGIYDLYVDYTEYVMDYWGQGTLVTVSSGGSSRSSSSGGGGSGGGGDIQMTQSPSSLSASGGSGQITVTCRASGFYPWNITLSWRQDGVSLSHDTQQWGDVLPDGQGTYQTWVATRISQGEEQRFTCYMEHSGQHSTHPVPSGKGSHHHHHH
notes: His-tagged α1-α2-α3-Fv fusion; also called DSM42 α1-α2-α3-Fv fusion
B6: MICv48-Fv (designed binder)
chain: EPHSLRYNLTVLSWDGSVQSGFLTEVHLDGQPFLRCDRQKCRAKPQGQWAEDVLGNKTWDRETRDLTGWGKDLRMTLAHIKDQKEGLHSLQEIRVCEIHEDNSTRSSQHFYYDGELFLSQNLETLEWTMPQSSRAQTLAMNVRNFLKEDAMATDTHYIAMRADCLAELRRYLKSGVVLRRTVPPMVQVTRSEASGGSGDRVTITCRASQDVSTAVAWYQQKPGKAPKLLIYSASFLYSGVPSRFSGSGSGTDFTLTISSLQPEDFATYYCQQSYTTPPTFGQGTKVEIKGGSSRSSSSGGGGSGGGGEVQLVESGGGLVQPGGSLRLSCAASGFTFTSTGISWVRQAPGKGLEWVGRIYPTNGSTNYADSVKGRFTISADTSKNTAYLQMNSLRAEDTAVYYCARTYGIYDLYVDYTEYVMDYWGQGTLVTVSSGGSSRSSSSGGGGSGGGGDIQMTQSPSSLSASGGSGQITVTCRASGFYPWNITLSWRQDGVSLSHDTQQWGDVLPDGQGTYQTWVATRISQGEEQRFTCYMEHSGQHSTHPVPSGKGSHHHHHH
notes: His-tagged α1-α2-α3-Fv fusion; also called DSM48 α1-α2-α3-Fv fusion
B7: MICv25-Fv (designed binder)
chain: EPHSLRYNLTVLSWDGSVQSGFLTEVHLDGQPFLRCDRQKCRAKPQGQWAEDVLGNKTWDRETRDLTGWGKDLRMTLAHIKDQKEGLHSLQEIRVCEIHEDNSTRSSQHFYYDGELFLSQNLETLEWTMPQSSRAQTLAMNVRNFLKEDAMETDTHYHAMRADCLSELRRYLKSGVVLRRTVPPMVQVTRSEASGGSGDRVTITCRASQDVSTAVAWYQQKPGKAPKLLIYSASFLYSGVPSRFSGSGSGTDFTLTISSLQPEDFATYYCQQSYTTPPTFGQGTKVEIKGGSSRSSSSGGGGSGGGGEVQLVESGGGLVQPGGSLRLSCAASGFTFTSTGISWVRQAPGKGLEWVGRIYPTNGSTNYADSVKGRFTISADTSKNTAYLQMNSLRAEDTAVYYCARTYGIYDLYVDYTEYVMDYWGQGTLVTVSSGGSSRSSSSGGGGSGGGGDIQMTQSPSSLSASGGSGQITVTCRASGFYPWNITLSWRQDGVSLSHDTQQWGDVLPDGQGTYQTWVATRISQGEEQRFTCYMEHSGQHSTHPVPSGKGSHHHHHH
notes: His-tagged α1-α2-α3-Fv fusion; also called DSM25 α1-α2-α3-Fv fusion

The Kd is the equilibrium constant for the complex coming apart. The koff is the first-order rate constant of dissociation. Low values mean a long-lived complex, high ones a short-lived complex. One may read the kon as a measure of how fast the partners come together.

For this experiment, the target named is T1, His-avitag-natural NKG2D. Nature of the experiment: biolayer interferometry (Octet), biotinylated natural NKG2D ectodomain on the surface, 100 nM fusion protein.
In turn, B1 gave a Kd of 13.8 nM, a koff of 0.0018 s⁻¹ and a kon of 130000 M⁻¹ s⁻¹.

The molecule B2 gave a Kd of 0.411 nM, a koff of 8.54e-05 s⁻¹ and a kon of 208000 M⁻¹ s⁻¹.

The molecule B3 showed a Kd of 0.0851 nM, a koff of 3.05e-05 s⁻¹ and a kon of 359000 M⁻¹ s⁻¹.

For B4, binding was put at a Kd of 0.33 nM, the koff is 7.03e-05 s⁻¹ and the kon was determined as 246000 M⁻¹ s⁻¹.

B5: binding was characterised by a dissociation constant (Kd) of 0.109 nM, the koff turned out to be 3.78e-05 s⁻¹ and the kon was 347000 M⁻¹ s⁻¹.

As for B6, binding was characterised by a dissociation constant (Kd) of 0.244 nM, the koff is 0.000145 s⁻¹ and the kon is 595000 M⁻¹ s⁻¹.

In turn, B7 gave a Kd of 0.0616 nM, a koff of 2.88e-05 s⁻¹ and a kon of 467000 M⁻¹ s⁻¹.
